Values of other authors as cited in paper PMC5838028.
pKd: −log10 of the molar value.

Biological target: glypican-3 (Homo sapiens) (UniProt P51654)
Sequence (P51654 359-554): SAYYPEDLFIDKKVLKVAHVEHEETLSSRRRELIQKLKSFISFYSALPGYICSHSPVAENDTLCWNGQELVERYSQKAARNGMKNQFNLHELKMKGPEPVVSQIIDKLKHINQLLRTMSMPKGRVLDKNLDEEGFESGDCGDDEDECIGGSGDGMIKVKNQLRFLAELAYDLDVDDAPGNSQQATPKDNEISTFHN

pKd: 9.17
Substance: codrituzumab
